Earlier results, collected in publication PMC6640714.

Biological target: FcγRIa (Homo sapiens) (UniProt P12314)
Assay: given as Ka

FcγRIa (Homo sapiens), sequence (P12314 16-374): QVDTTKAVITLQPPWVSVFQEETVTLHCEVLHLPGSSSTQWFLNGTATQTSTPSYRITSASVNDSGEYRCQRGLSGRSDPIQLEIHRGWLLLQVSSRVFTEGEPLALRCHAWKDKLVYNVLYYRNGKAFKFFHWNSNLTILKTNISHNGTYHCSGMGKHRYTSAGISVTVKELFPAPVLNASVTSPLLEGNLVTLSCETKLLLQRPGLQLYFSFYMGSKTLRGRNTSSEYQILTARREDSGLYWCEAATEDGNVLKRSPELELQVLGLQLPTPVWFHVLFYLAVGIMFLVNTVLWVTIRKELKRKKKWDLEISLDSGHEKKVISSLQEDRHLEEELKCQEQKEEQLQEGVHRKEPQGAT
IgG4, sequence (P01861 whole entry): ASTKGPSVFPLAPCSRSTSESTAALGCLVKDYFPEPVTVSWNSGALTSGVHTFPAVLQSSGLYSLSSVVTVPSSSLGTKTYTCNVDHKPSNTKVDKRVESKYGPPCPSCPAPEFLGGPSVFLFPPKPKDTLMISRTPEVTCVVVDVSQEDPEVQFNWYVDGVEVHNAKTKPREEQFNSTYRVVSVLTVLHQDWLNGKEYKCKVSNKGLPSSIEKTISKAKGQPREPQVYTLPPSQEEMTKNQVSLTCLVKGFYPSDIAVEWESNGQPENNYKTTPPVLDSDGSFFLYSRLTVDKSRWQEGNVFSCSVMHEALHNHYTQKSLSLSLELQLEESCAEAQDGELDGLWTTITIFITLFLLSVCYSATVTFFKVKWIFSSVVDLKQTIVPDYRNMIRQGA

- Kd: 29.4 nM
Substance: IgG4 (from UniProt P01861)
